Test results as given in publication PMC2816219.

Molecular target: F-actin (non-muscle human actin, pre-polymerized in vitro) (human) (UniProt P60709)
Assay: co-sedimentation; constant protein (16 nM GST-ARN127(25), 150 nM GST-Htt exon 1(25)) with increasing F-actin (0-8 µM or 0-16 µM); gels quantified for percent bound; approximate Kd

| Substance | Kd [nM] |
| --- | --- |
| GST-ARN127(25) (from UniProt P10275 1-127) (domain or fragment) | 1000 |
| GST-Htt exon 1(25) (domain or fragment) | 2000 |
